Measured values reported in US20220298218A1 (ANTAG THERAPEUTICS, published 2022).
Like-named read-outs stand apart in the source and are kept apart here. Where no end group is shown, it is not given here. The star is where a group is joined. C16 diacid = O=C(O)CCCCCCCCCCCCCCC(=O)*

How the values were obtained:
human GIP receptor [1] = molecular target: T1, human GIP receptor (human, UniProt P48546 22-466); test: cell-based or functional assay
T1 sequence (looked up): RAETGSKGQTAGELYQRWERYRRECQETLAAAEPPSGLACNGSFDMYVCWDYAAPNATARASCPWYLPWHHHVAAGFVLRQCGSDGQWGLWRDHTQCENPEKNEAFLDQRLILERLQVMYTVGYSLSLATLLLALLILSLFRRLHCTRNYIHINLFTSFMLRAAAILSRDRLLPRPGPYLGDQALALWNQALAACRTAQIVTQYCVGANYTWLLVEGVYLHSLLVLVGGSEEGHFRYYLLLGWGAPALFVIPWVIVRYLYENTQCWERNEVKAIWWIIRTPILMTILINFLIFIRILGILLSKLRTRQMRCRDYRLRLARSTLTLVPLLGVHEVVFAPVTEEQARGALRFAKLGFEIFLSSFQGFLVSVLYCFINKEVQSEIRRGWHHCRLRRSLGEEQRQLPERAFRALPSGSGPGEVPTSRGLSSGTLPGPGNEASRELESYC

human GIP receptor [2] = molecular target: T1, human GIP receptor; test: cell-based or functional assay; remark: listed apart in the source

Row | Binder | cAMP agonism % Emax (human GIP receptor [1]) | cAMP antagonism (human GIP receptor [1]) | cAMP antagonism % inhib (human GIP receptor [1]) | cAMP antagonism pIC50 (human GIP receptor [1]) | cAMP agonism Emax (human GIP receptor [2]) | cAMP antagonism (human GIP receptor [2]) | cAMP antagonism % inhib (human GIP receptor [2]) | cAMP antagonism log (human GIP receptor [2])
1 | EGTFISDYSIAMDKIK(C16 diacid)QQDFVNWLLAQKGKKND-OH (N-terminus assumed; SMILES CC[C@H](C)[C@H](NC(=O)[C@H](CO)NC(=O)[C@H](Cc1ccc(O)cc1)NC(=O)[C@H](CC(=O)O)NC(=O)[C@H](CO)NC(=O)[C@@H](NC(=O)[C@H](Cc1ccccc1)NC(=O)[C@@H](NC(=O)CNC(=O)[C@@H](N)CCC(=O)O)[C@@H](C)O)[C@@H](C)CC)C(=O)N[C@@H](C)C(=O)N[C@@H](CCSC)C(=O)N[C@@H](CC(=O)O)C(=O)N[C@@H](CCCCN)C(=O)N[C@H](C(=O)N[C@@H](CCCCNC(=O)CCCCCCCCCCCCCCC(=O)O)C(=O)N[C@@H](CCC(N)=O)C(=O)N[C@@H](CCC(N)=O)C(=O)N[C@@H](CC(=O)O)C(=O)N[C@@H](Cc1ccccc1)C(=O)N[C@H](C(=O)N[C@@H](CC(N)=O)C(=O)N[C@@H](Cc1c[nH]c2ccccc12)C(=O)N[C@@H](CC(C)C)C(=O)N[C@@H](CC(C)C)C(=O)N[C@@H](C)C(=O)N[C@@H](CCC(N)=O)C(=O)N[C@@H](CCCCN)C(=O)NCC(=O)N[C@@H](CCCCN)C(=O)N[C@@H](CCCCN)C(=O)N[C@@H](CC(N)=O)C(=O)N[C@@H](CC(=O)O)C(=O)O)C(C)C)[C@@H](C)CC) [AT450] | 0% | 2.29 nM | 97% | 8.6 | 5.8 | 3 nM | 57% | -8.5 log M
2 | EGTFISDYSIAMDKIK(C16 diacid)QQDFVNWLLAQKGK-OH (N-terminus assumed; SMILES CC[C@H](C)[C@H](NC(=O)[C@H](CO)NC(=O)[C@H](Cc1ccc(O)cc1)NC(=O)[C@H](CC(=O)O)NC(=O)[C@H](CO)NC(=O)[C@@H](NC(=O)[C@H](Cc1ccccc1)NC(=O)[C@@H](NC(=O)CNC(=O)[C@@H](N)CCC(=O)O)[C@@H](C)O)[C@@H](C)CC)C(=O)N[C@@H](C)C(=O)N[C@@H](CCSC)C(=O)N[C@@H](CC(=O)O)C(=O)N[C@@H](CCCCN)C(=O)N[C@H](C(=O)N[C@@H](CCCCNC(=O)CCCCCCCCCCCCCCC(=O)O)C(=O)N[C@@H](CCC(N)=O)C(=O)N[C@@H](CCC(N)=O)C(=O)N[C@@H](CC(=O)O)C(=O)N[C@@H](Cc1ccccc1)C(=O)N[C@H](C(=O)N[C@@H](CC(N)=O)C(=O)N[C@@H](Cc1c[nH]c2ccccc12)C(=O)N[C@@H](CC(C)C)C(=O)N[C@@H](CC(C)C)C(=O)N[C@@H](C)C(=O)N[C@@H](CCC(N)=O)C(=O)N[C@@H](CCCCN)C(=O)NCC(=O)N[C@@H](CCCCN)C(=O)O)C(C)C)[C@@H](C)CC) [AT448] | 0% | 1.36 nM | 96% | 8.9 | 6.2 | 6 nM | 77% | -8.2 log M
3 | EGTFISDYSIAMDKIK(C16 diacid)QQDFVNWLLAQKGKK-OH (N-terminus assumed; SMILES CC[C@H](C)[C@H](NC(=O)[C@H](CO)NC(=O)[C@H](Cc1ccc(O)cc1)NC(=O)[C@H](CC(=O)O)NC(=O)[C@H](CO)NC(=O)[C@@H](NC(=O)[C@H](Cc1ccccc1)NC(=O)[C@@H](NC(=O)CNC(=O)[C@@H](N)CCC(=O)O)[C@@H](C)O)[C@@H](C)CC)C(=O)N[C@@H](C)C(=O)N[C@@H](CCSC)C(=O)N[C@@H](CC(=O)O)C(=O)N[C@@H](CCCCN)C(=O)N[C@H](C(=O)N[C@@H](CCCCNC(=O)CCCCCCCCCCCCCCC(=O)O)C(=O)N[C@@H](CCC(N)=O)C(=O)N[C@@H](CCC(N)=O)C(=O)N[C@@H](CC(=O)O)C(=O)N[C@@H](Cc1ccccc1)C(=O)N[C@H](C(=O)N[C@@H](CC(N)=O)C(=O)N[C@@H](Cc1c[nH]c2ccccc12)C(=O)N[C@@H](CC(C)C)C(=O)N[C@@H](CC(C)C)C(=O)N[C@@H](C)C(=O)N[C@@H](CCC(N)=O)C(=O)N[C@@H](CCCCN)C(=O)NCC(=O)N[C@@H](CCCCN)C(=O)N[C@@H](CCCCN)C(=O)O)C(C)C)[C@@H](C)CC) [AT360] | 0% | 12.6 nM | 96% | 7.9 | 20 | 86 nM | 85% | -7.1 log M
4 | EGTFISDYSIAMDKIK(C16 diacid)QQDFVNWLLAQKGKKN-OH (N-terminus assumed; SMILES CC[C@H](C)[C@H](NC(=O)[C@H](CO)NC(=O)[C@H](Cc1ccc(O)cc1)NC(=O)[C@H](CC(=O)O)NC(=O)[C@H](CO)NC(=O)[C@@H](NC(=O)[C@H](Cc1ccccc1)NC(=O)[C@@H](NC(=O)CNC(=O)[C@@H](N)CCC(=O)O)[C@@H](C)O)[C@@H](C)CC)C(=O)N[C@@H](C)C(=O)N[C@@H](CCSC)C(=O)N[C@@H](CC(=O)O)C(=O)N[C@@H](CCCCN)C(=O)N[C@H](C(=O)N[C@@H](CCCCNC(=O)CCCCCCCCCCCCCCC(=O)O)C(=O)N[C@@H](CCC(N)=O)C(=O)N[C@@H](CCC(N)=O)C(=O)N[C@@H](CC(=O)O)C(=O)N[C@@H](Cc1ccccc1)C(=O)N[C@H](C(=O)N[C@@H](CC(N)=O)C(=O)N[C@@H](Cc1c[nH]c2ccccc12)C(=O)N[C@@H](CC(C)C)C(=O)N[C@@H](CC(C)C)C(=O)N[C@@H](C)C(=O)N[C@@H](CCC(N)=O)C(=O)N[C@@H](CCCCN)C(=O)NCC(=O)N[C@@H](CCCCN)C(=O)N[C@@H](CCCCN)C(=O)N[C@@H](CC(N)=O)C(=O)O)C(C)C)[C@@H](C)CC) [AT449] | 0% | 5.84 nM | 89% | 8.2 | 8.6 | 4 nM | 95% | -8.4 log M
5 | EGTFISDYSIAMDKIK(C16 diacid)QQDFVNWLLAQKG-OH (N-terminus assumed; SMILES CC[C@H](C)[C@H](NC(=O)[C@H](CO)NC(=O)[C@H](Cc1ccc(O)cc1)NC(=O)[C@H](CC(=O)O)NC(=O)[C@H](CO)NC(=O)[C@@H](NC(=O)[C@H](Cc1ccccc1)NC(=O)[C@@H](NC(=O)CNC(=O)[C@@H](N)CCC(=O)O)[C@@H](C)O)[C@@H](C)CC)C(=O)N[C@@H](C)C(=O)N[C@@H](CCSC)C(=O)N[C@@H](CC(=O)O)C(=O)N[C@@H](CCCCN)C(=O)N[C@H](C(=O)N[C@@H](CCCCNC(=O)CCCCCCCCCCCCCCC(=O)O)C(=O)N[C@@H](CCC(N)=O)C(=O)N[C@@H](CCC(N)=O)C(=O)N[C@@H](CC(=O)O)C(=O)N[C@@H](Cc1ccccc1)C(=O)N[C@H](C(=O)N[C@@H](CC(N)=O)C(=O)N[C@@H](Cc1c[nH]c2ccccc12)C(=O)N[C@@H](CC(C)C)C(=O)N[C@@H](CC(C)C)C(=O)N[C@@H](C)C(=O)N[C@@H](CCC(N)=O)C(=O)N[C@@H](CCCCN)C(=O)NCC(=O)O)C(C)C)[C@@H](C)CC) [AT447] | 0% | 11.9 nM | 93% | 7.9 | 4.2 | 9 nM | 82% | -8.1 log M
6 | EGTFISDYSIAMDKIK(C16 diacid)QQDFVNWLLAQKGP-OH (N-terminus assumed; SMILES CC[C@H](C)[C@H](NC(=O)[C@H](CO)NC(=O)[C@H](Cc1ccc(O)cc1)NC(=O)[C@H](CC(=O)O)NC(=O)[C@H](CO)NC(=O)[C@@H](NC(=O)[C@H](Cc1ccccc1)NC(=O)[C@@H](NC(=O)CNC(=O)[C@@H](N)CCC(=O)O)[C@@H](C)O)[C@@H](C)CC)C(=O)N[C@@H](C)C(=O)N[C@@H](CCSC)C(=O)N[C@@H](CC(=O)O)C(=O)N[C@@H](CCCCN)C(=O)N[C@H](C(=O)N[C@@H](CCCCNC(=O)CCCCCCCCCCCCCCC(=O)O)C(=O)N[C@@H](CCC(N)=O)C(=O)N[C@@H](CCC(N)=O)C(=O)N[C@@H](CC(=O)O)C(=O)N[C@@H](Cc1ccccc1)C(=O)N[C@H](C(=O)N[C@@H](CC(N)=O)C(=O)N[C@@H](Cc1c[nH]c2ccccc12)C(=O)N[C@@H](CC(C)C)C(=O)N[C@@H](CC(C)C)C(=O)N[C@@H](C)C(=O)N[C@@H](CCC(N)=O)C(=O)N[C@@H](CCCCN)C(=O)NCC(=O)N1CCC[C@H]1C(=O)O)C(C)C)[C@@H](C)CC) [AT474] | 0% | 13.6 nM | 86% | 7.9 | 5.9 | 4 nM | 100% | -8.4 log M
